{"source": "patent US20080045463", "proteins": {"B1": {"name": "Human HPH-2 (protein)", "chain": "MANDSGGPGGPSPSERDRQYCELCGKMENLLRCSRCRSSFYCCKEHQRQDWKKHKLVCQGSEGALGHGVGPHQHSGPAPPAAVPPPRAGAREPRKAAARRDNASGDAAKGKVKAKPPADPAAAASPCRAAAGGQGSAVAAEAEPGKEEPPARSSLFQEKANLYPPSNTPGDALSPGGGLRPNGQTKPLPALKLALEYIVPCMNKHGICVVDDFLGKETGQQIGDEVRALHDTGKFTDGQLVSQKSDSSKDIRGDKITWIEGKEPGCETIGLLMSSMDDLIRHCNGKLGSYKINGRTKAMVACYPGNGTGYVRHVDNPNGDGRCVTCIYYLNKDWDAKVSGGILRIFPEGKAQFADIEPKFDRLLFFWSDRRNPHEVQPAYATRYAITVWYFDADERARAKVKYLTGEKGVRVELNKPSDSVGKDVF"}, "B2": {"name": "Human HPH-1 (protein)", "chain": "MPLGHIMRLDLEKIALEYIVPCLHEVGFCYLDNFLGEVVGDCVLERVKQLHCTGALRDGQLAGPRAGVSKRHLRGDQITWIGGNEEGCEAISFLLSLIDRLVLYCGSRLGKYYVKERSKAMVACYPGNGTGYVRHVDNPNGDGRCITCIYYLNKNWDAKLHGGILRIFPEGKSFIADVEPIFDRLLFFWSDRRNPHEVQPSYATRYAMTVWYFDAEERAEAKKKFRNLTRKTESALTED"}}, "target": "T1, biotinylated HIF-1α ODD peptide, Q16665", "T1 chain": "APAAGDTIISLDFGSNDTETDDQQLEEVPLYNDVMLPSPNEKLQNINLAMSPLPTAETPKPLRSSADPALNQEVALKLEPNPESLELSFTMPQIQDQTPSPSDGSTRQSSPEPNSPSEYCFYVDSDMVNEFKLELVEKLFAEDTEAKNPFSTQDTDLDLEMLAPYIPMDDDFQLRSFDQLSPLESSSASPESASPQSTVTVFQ"}
{"protein": "B1", "values": [{"measurement": "^35S-pVHL pulldown enzyme assay activity (Pro564 hydroxylation of the peptide)", "result": "the ^35S-pVHL pulldown enzyme assay activity of each HPH homologue was dependent on 2-OG, Fe(II), and ascorbate"}]}
{"protein": "B2", "values": [{"measurement": "^35S-pVHL pulldown enzyme assay activity (Pro564 hydroxylation of the peptide)", "result": "As exemplified by HPH-1, the ^35S-pVHL pulldown enzyme assay activity of each HPH homologue was dependent on 2-OG, Fe(II), and ascorbate"}]}
